Laboratory results from US20060211075A1, “Enzyme sensors including environmentally sensitive or fluorescent labels and uses thereof” (The Albert Einstein College of Medicine of Yeshiva …, priority 2005, published 2006).
One block for each compound: values may come before it. Non-standard residues stand in square brackets, D forms with d. Residues, ends and D or L forms follow the SMILES beside them. No end group written: not given here. *: point of attachment. Cascade Yellow = fluorophore from Cascade Yellow succinimidyl ester, attached to the Dab or Dap side chain; pY = N[C@@H](Cc1ccc(OP(=O)(O)O)cc1)C(=O)O; NBD = O=[N+]([O-])c1ccc(*)c2nonc12; Dab = NCC[C@H](N)C(=O)O; Dap = NC[C@H](N)C(=O)O

How the values were obtained:
[1] = target: T1, Src (Homo sapiens, UniProt P12931); assay: Src kinase-catalyzed phosphorylation of self-reporting fluorophore-peptides, fluorescence change (no detection module); conditions: for Phosphorylation-induced fluorescence change: Src, no detection module; for Fluorescence change (fold): upon phosphorylation
Experimental: Tyrosine kinase-catalyzed phosphorylation was initiated by addition of 15 μL of 10 mM ATP to the following solution: 3 μL 0.1 mM peptide stock solution, 3.8 μL 200 mM MgCl2, 1.5 μL 100 mM MnCl2, 23.2 μL H2O, 6 μL 50 mM DTT, 15 μL 0.1 mg/mL BSA, and 7.5 μL 0.03 μM Src in 75 μL Tris buffer solution (pH 7.2).

[2] = target: T2, GST-Lck-SH2 (Homo sapiens, UniProt P06239); assay: Fluorescence change as a function of Lck-SH2 concentration (Src-catalyzed phosphorylation); type: biochemical
T2 construct: made in house; host or cells: E. coli
Description: As is evident from Table 1, the dapoxyl fluorophore positioned off the +3 and +4 sites on the peptide substrate (Dap-5 and Dab-5) produce the largest changes in fluorescent behavior. Two peptides (13 and 14, FIG. 4) were examined in greater detail. Both peptides were resynthesized on the Rink resin and purified by HPLC. In addition, the phosphotyrosine version of 13 was enzymatically prepared. […] If the SH2 domain is responsible for the fluorescence change induced by Src kinase-catalyzed phosphorylation, then the Lck SH2 domain concentration should influence the observed fluorescence response. […] The reactions were initiated by the addition of ATP. When only buffer was added to “initiate” the reaction (i.e. no ATP), the fluorescence of the mixture remained unperturbed. Furthermore, in the absence of Lck SH2 domain, ATP addition to initiate the reaction furnished an exceedingly modest change in fluorescence intensity (<5%). By contrast, increasing concentrations of SH2 domain produced increasing enhancements in fluorescence intensity. Above an Lck SH2 concentration of 16 μM, the change in fluorescence intensity began to level off, which is in keeping with the notion that the interaction between phosphopeptide and Lck SH2 domain was approaching saturation. […] This appears to be a consequence of the —NH(CH2)2SH tail that is present on the library members (but not on the amide-capped peptides, as a consequence of the respective synthesis methods used).
(§1) The fluorescence change was monitored as a function of time. Control assays in the absence of Lck-SH2 were also performed.
The assay protocol described above was used to assess the effect of GST-Lck-SH2 concentration on the observed fluorescence associated with the phosphorylation of pure peptide 13 (30 nM Src) and peptide 14 (15 nM Src).

[3] = target: T3, PTP1B (Homo sapiens, UniProt P18031); assay: Effect of PTP1B on the fluorescence change; type: biochemical; conditions: peptide substrate 4 μM; GST-Lck-SH2 22 μM
T3 construct: purchased Invitrogen
T3 sequence (P18031 1-435): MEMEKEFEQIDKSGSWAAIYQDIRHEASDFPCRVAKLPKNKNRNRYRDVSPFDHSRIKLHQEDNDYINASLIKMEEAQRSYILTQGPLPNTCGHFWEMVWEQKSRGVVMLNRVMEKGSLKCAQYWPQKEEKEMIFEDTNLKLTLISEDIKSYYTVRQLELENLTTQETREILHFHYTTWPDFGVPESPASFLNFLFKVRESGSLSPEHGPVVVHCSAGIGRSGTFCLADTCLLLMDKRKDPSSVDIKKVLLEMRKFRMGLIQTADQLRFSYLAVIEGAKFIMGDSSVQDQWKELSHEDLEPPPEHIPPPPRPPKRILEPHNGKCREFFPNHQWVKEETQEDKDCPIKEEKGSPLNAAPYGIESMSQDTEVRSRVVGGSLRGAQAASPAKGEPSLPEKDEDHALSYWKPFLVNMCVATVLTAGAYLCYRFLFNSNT

[4] = target: T1, Src; assay: Assay of library: Src kinase-catalyzed phosphorylation of fluorophore-labeled peptides in presence of Lck-SH2, fluorescence change; type: biochemical; set-up: purchased Invitrogen; conditions: fluorophore attachment site +4; —NH2 derivative (in parentheses, amide-capped); Lck-SH2 present
Experimental: The library was prepared via parallel synthesis using a previously described disulfide-linked Tentagel resin (see “Synthesis of Peptide Library” below). Following solid phase synthesis of the primary sequence, the side chain amine of the Dap or Dab residue was selectively deprotected and subsequently modified with the appropriate activated forms of 5, 6, and 7. The remaining protecting groups on the peptide were then removed with trifluoroacetic acid (TFA), the peptide-resin extensively washed to eliminate the last traces of TFA, and the peptide cleaved from the resin with assay buffer (which contained dithiothreitol) and purified by HPLC. The fluorescent response of the individual library members to Src catalysis in the presence of Lck SH2 was subsequently examined in detail (see “Assay of Library” below).
as §1

[5] = target: T1, Src; assay: Vmax and Km of Src kinase-catalyzed phosphorylation at fixed Lck-SH2 (20 μM); type: biochemical; set-up: purchased Invitrogen; conditions: varying peptide
Experimental: as §1
The final Src concentration was 30 nM for peptide 13 and 15 nM for peptide 14.

[6] = target: T4, Lck SH2 domain (Homo sapiens, UniProt P06239); assay: Effect of competing Lck-SH2 domain ligand on the fluorescence change; type: binding; conditions: ligand 50 μM, peptide substrate 4 μM, GST-Lck-SH2 22 μM
T4 construct: made in house; host or cells: E. coli
Description: As is evident from Table 1, the dapoxyl fluorophore positioned off the +3 and +4 sites on the peptide substrate (Dap-5 and Dab-5) produce the largest changes in fluorescent behavior. Two peptides (13 and 14, FIG. 4) were examined in greater detail. Both peptides were resynthesized on the Rink resin and purified by HPLC. In addition, the phosphotyrosine version of 13 was enzymatically prepared. […] If the SH2 domain is responsible for the fluorescence change induced by Src kinase-catalyzed phosphorylation, then the Lck SH2 domain concentration should influence the observed fluorescence response. […] The reactions were initiated by the addition of ATP. When only buffer was added to “initiate” the reaction (i.e. no ATP), the fluorescence of the mixture remained unperturbed. Furthermore, in the absence of Lck SH2 domain, ATP addition to initiate the reaction furnished an exceedingly modest change in fluorescence intensity (<5%). By contrast, increasing concentrations of SH2 domain produced increasing enhancements in fluorescence intensity. Above an Lck SH2 concentration of 16 μM, the change in fluorescence intensity began to level off, which is in keeping with the notion that the interaction between phosphopeptide and Lck SH2 domain was approaching saturation. […]

[7] = fluorophore on Dap at position Y+3, λex/λem (nm) (first pair listed for the fluorophore)
[8] = fluorophore on Dab at position Y−2, λex/λem (nm) (first pair listed for the fluorophore)

T2 sequence (P06239 127-224 limits assumed): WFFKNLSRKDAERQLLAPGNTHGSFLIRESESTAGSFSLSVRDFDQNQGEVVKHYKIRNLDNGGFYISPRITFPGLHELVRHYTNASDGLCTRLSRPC
T4 sequence (P06239 127-224 limits assumed): as above

- Phosphorylation-induced fluorescence change [1]: smaller fluorescence response
Compound: 27: corresponding peptide containing Cascade Yellow positioned at Y+3, SEQ ID NO:16 (EEEIYGE[Dap](Cascade Yellow)EA) [Peptide 27]

- change in fluorescence intensity on ATP addition ([2]; absence of Lck SH2 domain, peptide 16 μM): < 5%
- Fluorescence Increase ([2]; peptide 16 μM, Lck-SH2 0 μM, 30 nM Src): 1.07 fold change
- Fluorescence Increase ([2]; peptide 16 μM, Lck-SH2 4 μM, 30 nM Src): 1.24 fold change
- Fluorescence Increase ([2]; peptide 16 μM, Lck-SH2 8 μM, 30 nM Src): 1.33 fold change
- Fluorescence Increase ([2]; peptide 16 μM, Lck-SH2 12 μM, 30 nM Src): 1.41 fold change
- Fluorescence Increase ([2]; peptide 16 μM, Lck-SH2 16 μM, 30 nM Src): 1.52 fold change
- Fluorescence Increase ([2]; peptide 16 μM, Lck-SH2 20 μM, 30 nM Src): 1.56 fold change
- Fluorescence Increase ([2]; peptide 16 μM, Lck-SH2 26 μM, 30 nM Src): 1.61 fold change
- Fluorescence Increase ([2]; peptide 16 μM, Lck-SH2 32 μM, 30 nM Src): 1.59 fold change
- fluorescence change when PTP1B is added at the same time as ATP [3]: blocked the fluorescence change
Compound: CC[C@H](C)[C@H](NC(=O)[C@H](CCC(=O)O)NC(=O)[C@H](CNc1ccc([N+](=O)[O-])c2nonc12)NC(=O)[C@H](Cc1ccc(O)cc1)NC(=O)[C@@H](NC(=O)[C@H](CCC(=O)O)NC(=O)[C@H](CCC(=O)O)NC(=O)[C@H](CCC(=O)O)NC(C)=O)[C@@H](C)CC)C(=O)N[C@@H](CCC(=O)O)C(=O)N[C@@H](C)C(N)=O [Peptide 13, Ac-Glu-Glu-Glu-Ile-Tyr-Dap(NBD)-Glu-Ile-Glu-Ala] (Ac-EEEIY[Dap](NBD)EIEA-NH2)
- fluorescence intensity when PTP1B is added after completion of the Src kinase-catalyzed reaction [3]: reduced the fluorescence intensity to the starting value

- Fluorescence Increase ([2]; peptide 8 μM, Lck-SH2 0.2 μM, 15 nM Src): 1.07 fold change
- Fluorescence Increase ([2]; peptide 8 μM, Lck-SH2 2 μM, 15 nM Src): 1.70 fold change
- Fluorescence Increase ([2]; peptide 8 μM, Lck-SH2 4 μM, 15 nM Src): 2.32 fold change
- Fluorescence Increase ([2]; peptide 8 μM, Lck-SH2 8 μM, 15 nM Src): 4.31 fold change
- Fluorescence Increase ([2]; peptide 8 μM, Lck-SH2 12 μM, 15 nM Src): 5.34 fold change
- Fluorescence Increase ([2]; peptide 8 μM, Lck-SH2 16 μM, 15 nM Src): 6.20 fold change
- Fluorescence Increase ([2]; peptide 8 μM, Lck-SH2 20 μM, 15 nM Src): 6.85 fold change
- Fluorescence Increase ([2]; peptide 8 μM, Lck-SH2 26 μM, 15 nM Src): 7.32 fold change
- Fluorescence Increase ([2]; peptide 8 μM, Lck-SH2 32 μM, 15 nM Src): 7.20 fold change
- Fold change in fluorescence intensity in the Src kinase-catalyzed phosphorylation [4]: 7.2 fold
- Km [5]: 4.8 ± 0.8 µM
- Vmax [5]: 1.5 ± 0.1 µmol/min/mg
Compound: Ac-Glu-Glu-Glu-Ile-Tyr-Gly-Glu-Ile-Dab(dapoxyl)-Ala (Ac-EEEIYGEI[Dab](dapoxyl)A-NH2; not fully specified; printed as Ac-Glu-Glu-Glu-Ile-Tyr-Gly-Glu-Ile-Dab(dapoxyl)-Ala) [Peptide 14]

Compound: Ac-pTyr-Glu-Glu-Ile-Glu-amide (Ac-[pY]EEIE-NH2; SMILES CC[C@H](C)[C@H](NC(=O)[C@H](CCC(=O)O)NC(=O)[C@H](CCC(=O)O)NC(=O)[C@H](Cc1ccc(OP(=O)(O)O)cc1)NC(C)=O)C(=O)N[C@@H](CCC(=O)O)C(N)=O)
- fluorescence change of the Src reaction in presence of known Lck SH2 domain ligand [6]: no fluorescence change was observed
- fluorescence change of the Src reaction in presence of known Lck SH2 domain ligand ([6]; listed as Ac-pTyr-Glu-Glu-Ile-Glu-OH): no fluorescence change

- Fluorescence change (fold) [1, 7]: 1.06 fold
Compound: BODIPY FL

- Fluorescence change (fold) [1, 8]: 2.1 fold
- Fluorescence change (fold) ([1]; fluorophore on Dap at position Y+3, λex 379 nm, λem 422 nm): 1.7 fold
- Fluorescence change (fold) [1, 7]: 1.7 fold
Compound: Cascade Blue ™

- Fluorescence change (fold) [1, 8]: 2.7 fold
- Fluorescence change (fold) [1, 7]: 1.45 fold
Compound: Cascade Yellow (EE[Dab](Cascade Yellow)IYGEIEA)

- Fluorescence change (fold) [1, 8]: 1.0 fold
- Fluorescence change (fold) [1, 7]: 1.0 fold
Compound: Dansyl

Compound: NBD (Ac-EEEIY[Dap](NBD)EIEA-NH2; SMILES CC[C@H](C)[C@H](NC(=O)[C@H](CCC(=O)O)NC(=O)[C@H](CNc1ccc([N+](=O)[O-])c2nonc12)NC(=O)[C@H](Cc1ccc(O)cc1)NC(=O)[C@@H](NC(=O)[C@H](CCC(=O)O)NC(=O)[C@H](CCC(=O)O)NC(=O)[C@H](CCC(=O)O)NC(C)=O)[C@@H](C)CC)C(=O)N[C@@H](CCC(=O)O)C(=O)N[C@@H](C)C(N)=O)
- Fluorescence change (fold) [1, 8]: 1.7 fold
- Fluorescence change (fold) [1, 7]: 1.25 fold

- Phosphorylation-induced fluorescence change [1]: 2.7 fold
Compound: Sensor 26: Cascade Yellow-containing sensor, fluorophore on Dab at Y−2, SEQ ID NO:15 (EE[Dab](Cascade Yellow)IYGEIEA)
